Test [1] deals with T1, human ICOS on human T cells (human, UniProt Q9Y6W8 21-167).
T1 construct: endogenous receptor on primary cells; also called ICOS on CD4+ and CD8+ T cells of healthy human donors
T1 sequence: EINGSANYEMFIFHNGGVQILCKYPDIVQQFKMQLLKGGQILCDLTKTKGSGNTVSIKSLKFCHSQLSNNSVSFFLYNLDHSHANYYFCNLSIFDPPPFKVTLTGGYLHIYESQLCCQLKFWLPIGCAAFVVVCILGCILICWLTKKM
Briefly: flow cytometry, activated human CD4 T cells, FITC MFI, median of donors. Here is the method: (§1) Binding of H2L5 hIgG4PE was assessed in both naive and activated CD3+ T cells.
(§2) Either naive and/or activated CD3+ T cells were re-suspended in PBS with 0.1% BSA (FACS Buffer) containing Human FcR Blocking Solution at 2×10⁶ cells/mL (5 μl FcR Blocking Solution+[…] FACS Buffer per 1 mL). At a concentration of 2×10⁵ cells/well, 100 μl cells were placed into 2 mL 96 well Assay Blocks and incubated at room temperature for 15 minutes. During the incubation, a titration of the binding antibodies, anti-ICOS (H2L5 hIgG4PE) or IgG4 Isotype Control antibody was prepared as a 2× concentration. […] Following the binding incubation, cells were washed twice in 1 mL of FACS buffer, centrifuging at 400×g for 5 minutes at room temperature.
(§3) Data acquisition and compensation were performed on BD FACS instruments, LSR Fortessa X-20 or FACS Canto II using BD Diva (ver. 8.0) software. Data analysis employed Flow Jo software (ver.10.0.8r1). Results are reported as both MFI (Median Fluorescence Intensity) and Percent of cells positive for human IgG kappa light chain FITC staining out of the total live cells or appropriate parent population. EC50s were determined using Graphpad Prism 5 software (ver. 5.04) with non-linear regression of transformed data (X=(log(X)) using a variable slope with 4 parameters (log(Agonist) vs. response—Variable slope).
(In general: A flow cytometer gives signals particle by particle.)

For test [2], the target named is T1, human ICOS on human T cells. Nature of the test: flow cytometry, activated human CD8 T cells, percent FITC positive, donor 1124F36. The protocol: as §1, §2, §3
For test [3] the target is unchanged. Nature of the test: flow cytometry, activated human CD4 T cells, percent FITC positive, donor 1173F42. The protocol: as §1, §2, §3
Test [4] has the same target. Briefly: flow cytometry, activated human CD4 T cells, FITC MFI, mean of donors. The protocol:
as §2, §3

For test [5] the target is unchanged. Nature of the test: flow cytometry, activated human CD4 T cells, percent FITC positive, median of donors. The protocol:
as §1, §2, §3

Test [6] shares this target. Briefly: flow cytometry, activated human CD8 T cells, FITC MFI, mean of donors. Here is the method: as §1, §2, §3
The target is the same in test [7]. Nature of the test: flow cytometry, activated human CD8 T cells, FITC MFI, median of donors. Here is the method: as §2, §3
The target is the same in test [8]. Briefly: flow cytometry, activated human CD4 T cells, FITC MFI, donor 1149M52. Here is the method:
as §1, §2, §3

Test [9] shares this target. Briefly: flow cytometry, activated human CD4 T cells, FITC MFI, donor 1123F59. The protocol: as §1, §2, §3
The target is the same in test [10]. Briefly: flow cytometry, activated human CD8 T cells, percent FITC positive, donor 1149M52. Here is the method:
as §1, §2, §3

For test [11] the target is unchanged. Nature of the test: flow cytometry, activated human CD4 T cells, percent FITC positive, donor 1123F59. Here is the method:
as §1, §2, §3

Test [12] has the same target. Briefly: flow cytometry, activated human CD4 T cells, percent FITC positive, donor 1141F45. The protocol: as §2, §3
The target is the same in test [13]. Briefly: flow cytometry, activated human CD8 T cells, percent FITC positive, donor 2100M39. The protocol:
as §2, §3

For test [14] the target is unchanged. Nature of the test: flow cytometry, activated human CD4 T cells, percent FITC positive, donor 2100M39. Here is the method: as §2, §3
Test [15] shares this target. Nature of the test: flow cytometry, activated human CD4 T cells, FITC MFI, donor 1141F45. The protocol: as §1, §2, §3
The target is the same in test [16]. Nature of the test: flow cytometry, activated human CD8 T cells, percent FITC positive, median of donors. Here is the method:
as §1, §2, §3

For test [17] the target is unchanged. Nature of the test: flow cytometry, activated human CD8 T cells, FITC MFI, donor 1173F42. The protocol: as §2, §3

B1: H2L5 hIgG4PE (antibody)
heavy: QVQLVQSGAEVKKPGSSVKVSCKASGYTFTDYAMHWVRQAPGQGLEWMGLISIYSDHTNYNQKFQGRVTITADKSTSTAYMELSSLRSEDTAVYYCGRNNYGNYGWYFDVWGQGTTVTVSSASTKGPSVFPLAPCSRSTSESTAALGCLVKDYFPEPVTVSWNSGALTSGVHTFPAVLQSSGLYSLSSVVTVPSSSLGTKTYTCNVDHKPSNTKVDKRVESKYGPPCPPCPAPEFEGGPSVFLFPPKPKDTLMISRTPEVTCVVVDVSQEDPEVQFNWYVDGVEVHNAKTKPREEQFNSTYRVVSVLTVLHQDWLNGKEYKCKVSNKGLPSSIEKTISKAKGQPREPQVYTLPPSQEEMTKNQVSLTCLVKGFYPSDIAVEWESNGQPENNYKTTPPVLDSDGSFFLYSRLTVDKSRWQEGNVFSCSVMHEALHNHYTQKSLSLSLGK
light: EIVLTQSPATLSLSPGERATLSCSASSSVSYMHWYQQKPGQAPRLLIYDTSKLASGIPARFSGSGSGTDYTLTISSLEPEDFAVYYCFQGSGYPYTFGQGTKLEIKRTVAAPSVFIFPPSDEQLKSGTASVVCLLNNFYPREAKVQWKVDNALQSGNSQESVTEQDSKDSTYSLSSTLTLSKADYEKHKVYACEVTHQGLSSPVTKSFNRGEC
notes: also called 422 H2L5 hIgG4PE; H2L5 IgG4PE; copies: 2 + 2
Regarding B1, the EC50 (in general, the midpoint of the concentration-response curve) worked out at 1.04 µg/mL in test [1]; 0.619 µg/mL in [2]; 0.612 µg/mL in [3]; 0.977 µg/mL in test [4]; 0.834 µg/mL in test [5]; 0.525 µg/mL in test [6]. In addition, the concentration for a half-maximal effect (EC50) in test [7] worked out at 0.652 µg/mL; in test [8] it was 1.31 µg/mL; in test [9], 1.04 µg/mL; in test [10], 0.547 µg/mL; in test [11], 0.853 µg/mL; in [12] it was 0.965 µg/mL. In addition, the concentration for a half-maximal effect (EC50) in [13] was determined as 1.23 µg/mL; in test [14], 0.814 µg/mL; in test [15], 1.27 µg/mL; in [16], 0.583 µg/mL; in test [17], 0.27 µg/mL.
